Like-named read-outs stand apart in the source and are kept apart here.

The test in a line: Ca2+ sensitivity curves of reconstituted photoproteins (L/Lmax vs free Ca2+). The format is biochemical. As to conditions: for EC50: redquorin series, CitA, GA, read-out: Calcium sensitivity, EC50; for Relative intensity at pCa 6.5 / Relative intensity at pCa 7.2: relative to Redq. The essentials: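 Purified apoaequorin/redquorin mutants reconstituted overnight at 4 °C with 5 μM CLZ-f or native CLZ, then moved to zero-Ca2+ MOPS/KCl/EGTA buffer, pH 7.2. Luminescence in EGTA-buffered free-Ca2+ solutions, then saturating CaCl2 to obtain Lmax; EC50 from variable-slope sigmoidal fit of L/Lmax.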

B1: Redq/Q159T: aporedquorin (tdTomato-aequorin fusion) mutant Q159T (SEQ ID NO:22) (protein)
chain: MVSKGEEVIKEFMRFKVRMEGSMNGHEFEIEGEGEGRPYEGTQTAKLKVTKGGPLPFAWDILSPQFMYGSKAYVKHPADIPDYKKLSFPEGFKWERVMNFEDGGLVTVTQDSSLQDGTLIYKVKMRGTNFPPDGPVMQKKTMGWEASTERLYPRDGVLKGEIHQALKLKDGGHYLVEFKTIYMAKKPVQLPGYYYVDTKLDITSHNEDYTIVEQYERSEGRHHLFLGHGTGSTGSGSSGTASSEDNNMAVIKEFMRFKVRMEGSMNGHEFEIEGEGEGRPYEGTQTAKLKVTKGGPLPFAWDILSPQFMYGSKAYVKHPADIPDYKKLSFPEGFKWERVMNFEDGGLVTVTQDSSLQDGTLIYKVKMRGTNFPPDGPVMQKKTMGWEASTERLYPRDGVLKGEIHQALKLKDGGHYLVEFKTIYMAKKPVQLPGYYYVDTKLDITSHNEDYTIVEQYERSEGRHHLFLSGFDNPRWIGRHKHMFNFLDVNHNGKISLDEMVYKASDIVINNLGATPEQAKRHKDAVEAFFGGAGMKYGVETDWPAYIEGWKKLATDELEKYAKNEPTLIRIWGDALFDIVDKDQNGAITLDEWKAYTKAAGIIQSSEDCEETFRVCDIDESGTLDVDEMTRQHLGFWYTMDPACEKLYGGAVP
modifications: mutant aequorin
By EC50 is commonly meant the concentration that produces a half-maximal response. For the molecule B1, the EC50 was 296 ± 13 nM (CLZ-f) and 478 ± 39 nM (CLZ-native). Also, the “Relative intensity at pCa 6.5” value turned out to be 11.0 (CLZ-f); 11 (CLZ-f, listed as Redq/QT); 13.0 (CLZ-native); 13 (CLZ-native, listed as Redq/QT). The “Relative intensity at pCa 7.2” value by setting is: (CLZ-f) 2.8; (CLZ-native) 7.1.

B2: Redq/Q159D: aporedquorin (tdTomato-aequorin fusion) mutant Q159D (SEQ ID NO:21) (protein)
chain: MVSKGEEVIKEFMRFKVRMEGSMNGHEFEIEGEGEGRPYEGTQTAKLKVTKGGPLPFAWDILSPQFMYGSKAYVKHPADIPDYKKLSFPEGFKWERVMNFEDGGLVTVTQDSSLQDGTLIYKVKMRGTNFPPDGPVMQKKTMGWEASTERLYPRDGVLKGEIHQALKLKDGGHYLVEFKTIYMAKKPVQLPGYYYVDTKLDITSHNEDYTIVEQYERSEGRHHLFLGHGTGSTGSGSSGTASSEDNNMAVIKEFMRFKVRMEGSMNGHEFEIEGEGEGRPYEGTQTAKLKVTKGGPLPFAWDILSPQFMYGSKAYVKHPADIPDYKKLSFPEGFKWERVMNFEDGGLVTVTQDSSLQDGTLIYKVKMRGTNFPPDGPVMQKKTMGWEASTERLYPRDGVLKGEIHQALKLKDGGHYLVEFKTIYMAKKPVQLPGYYYVDTKLDITSHNEDYTIVEQYERSEGRHHLFLSGFDNPRWIGRHKHMFNFLDVNHNGKISLDEMVYKASDIVINNLGATPEQAKRHKDAVEAFFGGAGMKYGVETDWPAYIEGWKKLATDELEKYAKNEPTLIRIWGDALFDIVDKDQNGAITLDEWKAYTKAAGIIQSSEDCEETFRVCDIDESGDLDVDEMTRQHLGFWYTMDPACEKLYGGAVP
modifications: mutant aequorin
In the case of B2, where the note is “CLZ-f”, the EC50 turned out to be 290 ± 18 nM, the “Relative intensity at pCa 6.5” value was determined as 23.9 and the “Relative intensity at pCa 7.2” value is given as 14.9. Where the note is “CLZ-native”, the EC50 came out at 680 ± 33 nM, the “Relative intensity at pCa 6.5” value is listed as 9.1 and the “Relative intensity at pCa 7.2” value came out at 13.2.

Source of the values: patent publication US20180319855A1, “GENETICALLY MUTATED AEQUORIN-BASED BIOSENSORS WITH EXTRA SENSITIVITY TO CALCIUM AND IMPROVED BIOLUMINESCENCE INTENSITY” (CENTRE NATIONAL DE LA RECHERCHE SCIENTIFIQUE (CNRS), priority 2015, published 2018).
